Measured values taken from the supplement of paper PMC9732359.
± gives the uncertainty stated by the source.

Experiment: protein stability index of a GFP-peptide fusion (yeast GPS) (PSI 1-4); higher = more stable; sorted into four equal gates, so the index is relative within each strain
Conditions: pdr5∆
Procedure, shortened: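 Each library plasmid carries Cherry plus GFP with a tiled 17-residue yeast protein peptide fused downstream, and the pooled library was carried in yeast. Mid-log cultures in leucine-free medium were sorted into four equal gates by GFP/Cherry ratio. Reads from Illumina sequencing of PCR-amplified plasmids from each gate were assigned to strains by barcodes. Per peptide, the protein stability index was computed as the summed products of gate read frequency and gate number.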

Sequence | protein stability index
IDRNLKCQTCQEGMNEC [RPO21] | 1.38 ± 0.061
IDRNSTILYLNVFHGLC [IRR1] | 1.52 ± 0.084
IDRPKHELSRAELEELE [SMD2] | 3.27 ± 0.15
IDTSKNLENMSIQDTST [YCG1] | 2.94 ± 0.041
IEDLRADINSNRLSNPQ [YOR098C/NUP1] | 2.8 ± 0.076
IEEAKSIRRQDYINELS [REC8] | 3.11 ± 0.22
IEEEIFDDSSRIVNHKT [LIN1] | 2.91 ± 0.1
IEFEYDPWNKLKHTDYW [RPB3] | 2.69 ± 0.17
IEILVKDNECSSFEENN [RRI2] | 3.02 ± 0.13
IELSDGSTFKVNQEFIF [YJL039C/NUP192] | 3.07 ± 0.059
IEMKDVSSKPSKPESSV [MED1] | 3.33 ± 0.11
IEMYVQEASKQYTKDEQ [RPN2] | 3.16 ± 0.091
IENMTKEKVSNGGVGVD [FAS2] | 3.16 ± 0.1
IEPVTKVSSLKMFIQRI [YCS4] | 2.9 ± 0.065
IEQFAMRRNSKILNIIK [POP5] | 2.88 ± 0.077
IETIGHLITKEEIMHGL [RPN5] | 3.31 ± 0.14
IEYCSAQPSVQSSFAGT [FAS2] | 3.07 ± 0.094
IFINYKQTADWLAEKFQ [PRP28] | 1.93 ± 0.06
IFNGETLEDALRRIITD [GRR1] | 1.96 ± 0.059
IFSQMSRLLDILEDYCY [ISW2] | 2.8 ± 0.094
IFSQTTNSTYNPASATD [YJL039C/NUP192] | 2.69 ± 0.071
IFTEKIYKSIFNVVDVG [YJL039C/NUP192] | 1.71 ± 0.072
IGAAELNENARELEQIK [SNF12] | 3.18 ± 0.067
IGHLITKEEIMHGLQAK [RPN5] | 2.96 ± 0.091
IGNLITRQFEGRSNEIV [PRP8] | 3.29 ± 0.087
IGTANYKPLIEERMGQI [SMC4] | 3.53 ± 0.087

Sequence | protein stability index
IHGELKTYKEGINKNEE [SMC1] | 3.09 ± 0.051
IHKIQNDNNLKKLESQE [RPN5] | 3 ± 0.17
IHSLVKQRLDLARQVKL [YIL149C/MLP2] | 2.6 ± 0.061
IIAELSFLKVDPDLGLD [YJL039C/NUP192] | 3.26 ± 0.086
IIASASYDKTVKLWEED [YGL100W/SEH1] | 3.67 ± 0.25
IIDEIITQMRVNDEEEH [RPC82] | 2.54 ± 0.071
IIFASTKLGFTFTIKEF [SNU114] | 2.44 ± 0.059
IIKLVEGLANDPENKVP [RPS12] | 1.77 ± 0.065
IILGTNLYDGAEHKYMP [BRR2] | 3.47 ± 0.096
IIMFVGLQGSGKTTSCT [SRP54] | 3.04 ± 0.054
IINSTALMKEKDIRSTL [RPC82] | 3 ± 0.099
IIPQDILDCVVTNSMRQ [YJR042W/NUP85] | 3.15 ± 0.072
IIRHEKELEPWDLQLQE [SMC4] | 2.82 ± 0.13
IITSGRDTREVLEERER [ARP9] | 3.36 ± 0.14
IIVPDLIELKSDLLVAP [YML103C/NUP188] | 1.8 ± 0.056
IKDSVREVGTKFTTVLA [ECM29] | 2.6 ± 0.07
IKEENDMENMADEQKRS [ARP7] | 3.48 ± 0.15
IKEKVQFNATINPESRE [ITC1] | 1.6 ± 0.044
IKELLNITKNLKTFNGS [POP4] | 2 ± 0.064
IKGQCLATLLGHNDWVS [ASC1] | 1.69 ± 0.083
IKHKHKKVKLAVLSYYK [RPS31] | 2.59 ± 0.074
IKIEPSADDDVNNGNIP [SIR3] | 2.44 ± 0.14
IKKVICGAWEPAITIEK [SIR3] | 2.45 ± 0.087
IKLDIVVGQNQLIDQFE [SNF5] | 2.07 ± 0.098
IKPKIALQDKEITSVLS [SNF12] | 2.39 ± 0.1
IKRTDEGGEAEFIFGTY [ARP7] | 3.3 ± 0.11
